What was measured:
[1] = target: 14-3-3 protein zeta/delta (human) (UniProt P63104); assay: PIF affinity resin pull-down, CD4+ cell lysate, LC-MS/MS count
[2] = target: Acidic leucine-rich nuclear phosphoprotein 32 family member A (human) (UniProt P39687); assay: as above
[3] = target: Actin, cytoplasmic 1 (human) (UniProt P60709); assay: as above
Calmodulin (human) = Calmodulin (human) (UniProt P0DP23); assay: as above
[4] = target: Cartilage oligomeric matrix protein (human) (UniProt P49747); assay: as above
Cofilin-1 (human) = Cofilin-1 (human) (UniProt P23528); assay: as above
[5] = target: Glucosidase 2 subunit beta (human) (UniProt P14314); assay: as above
[6] = target: Hepatoma-derived growth factor (human) (UniProt P51858); assay: as above
[7] = target: Histone H2A type 1-B/E (human) (UniProt P04908); assay: as above
[8] = target: Isoform 2 of Heat shock protein HSP 90-alpha (human) (UniProt P07900); assay: as above
[9] = target: Isoform 2 of Protein SET (human) (UniProt Q01105); assay: as above
Nucleolin (human) = Nucleolin (human) (UniProt P19338); assay: as above
[10] = target: Serine/arginine-rich-splicing factor 2 (human) (UniProt Q01130); assay: as above
[11] = target: Serum deprivation-response protein (human) (UniProt O95810); assay: as above
[12] = target: Thrombin light chain (human) (UniProt P00734); assay: as above
Thrombospondin-1 (human) = Thrombospondin-1 (human) (UniProt P07996); assay: as above
Thrombospondin-4 (human) = Thrombospondin-4 (human) (UniProt P35443); assay: as above
Thymosin alpha-1 (human) = Thymosin alpha-1 (human) (UniProt P06454); assay: as above
[13] = target: Tropomyosin alpha-4 chain (human) (UniProt P67936); assay: as above
[14] = target: 14-3-3 protein gamma (human) (UniProt P61981); assay: PIF affinity resin pull-down, CD14+ cell lysate, LC-MS/MS count
Calreticulin (human) = Calreticulin (human) (UniProt P27797); assay: as above
[15] = target: Isoform 2 of Ras suppressor protein 1 (human) (UniProt Q15404); assay: as above
Matrin-3 (human) = Matrin-3 (human) (UniProt A8MXP9); assay: as above
[16] = target: Protein disulfide-isomerase A4 (human) (UniProt P13667); assay: as above
Protein disulfide-isomerase A4 (human), sequence (P13667 21-645 limits assumed): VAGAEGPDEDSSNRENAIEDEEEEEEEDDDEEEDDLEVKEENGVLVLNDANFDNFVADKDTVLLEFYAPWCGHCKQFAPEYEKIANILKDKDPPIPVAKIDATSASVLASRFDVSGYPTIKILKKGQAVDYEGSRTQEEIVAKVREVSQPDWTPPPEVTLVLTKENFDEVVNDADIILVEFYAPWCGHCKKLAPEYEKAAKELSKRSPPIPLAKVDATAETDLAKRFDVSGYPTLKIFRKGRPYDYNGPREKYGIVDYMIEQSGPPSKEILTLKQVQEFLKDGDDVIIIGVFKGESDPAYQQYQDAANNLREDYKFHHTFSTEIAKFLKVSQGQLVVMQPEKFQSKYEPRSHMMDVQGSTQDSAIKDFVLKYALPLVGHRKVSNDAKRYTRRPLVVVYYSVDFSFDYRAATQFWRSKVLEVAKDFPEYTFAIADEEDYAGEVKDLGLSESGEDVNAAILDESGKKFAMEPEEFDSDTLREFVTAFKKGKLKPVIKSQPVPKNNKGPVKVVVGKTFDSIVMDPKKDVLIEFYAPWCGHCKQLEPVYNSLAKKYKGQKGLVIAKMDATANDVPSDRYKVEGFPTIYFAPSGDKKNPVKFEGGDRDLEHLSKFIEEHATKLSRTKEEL

Serine/arginine-rich-splicing factor 2 (human), sequence (Q01130 2-221 limits assumed): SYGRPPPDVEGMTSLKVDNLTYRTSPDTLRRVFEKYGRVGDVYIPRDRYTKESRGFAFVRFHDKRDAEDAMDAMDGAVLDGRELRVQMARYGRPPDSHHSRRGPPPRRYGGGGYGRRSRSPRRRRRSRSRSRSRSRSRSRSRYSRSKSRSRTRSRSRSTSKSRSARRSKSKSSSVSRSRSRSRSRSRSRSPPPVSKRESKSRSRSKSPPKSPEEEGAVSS
Thrombospondin-4 (human), sequence (P35443 27-961 limits assumed): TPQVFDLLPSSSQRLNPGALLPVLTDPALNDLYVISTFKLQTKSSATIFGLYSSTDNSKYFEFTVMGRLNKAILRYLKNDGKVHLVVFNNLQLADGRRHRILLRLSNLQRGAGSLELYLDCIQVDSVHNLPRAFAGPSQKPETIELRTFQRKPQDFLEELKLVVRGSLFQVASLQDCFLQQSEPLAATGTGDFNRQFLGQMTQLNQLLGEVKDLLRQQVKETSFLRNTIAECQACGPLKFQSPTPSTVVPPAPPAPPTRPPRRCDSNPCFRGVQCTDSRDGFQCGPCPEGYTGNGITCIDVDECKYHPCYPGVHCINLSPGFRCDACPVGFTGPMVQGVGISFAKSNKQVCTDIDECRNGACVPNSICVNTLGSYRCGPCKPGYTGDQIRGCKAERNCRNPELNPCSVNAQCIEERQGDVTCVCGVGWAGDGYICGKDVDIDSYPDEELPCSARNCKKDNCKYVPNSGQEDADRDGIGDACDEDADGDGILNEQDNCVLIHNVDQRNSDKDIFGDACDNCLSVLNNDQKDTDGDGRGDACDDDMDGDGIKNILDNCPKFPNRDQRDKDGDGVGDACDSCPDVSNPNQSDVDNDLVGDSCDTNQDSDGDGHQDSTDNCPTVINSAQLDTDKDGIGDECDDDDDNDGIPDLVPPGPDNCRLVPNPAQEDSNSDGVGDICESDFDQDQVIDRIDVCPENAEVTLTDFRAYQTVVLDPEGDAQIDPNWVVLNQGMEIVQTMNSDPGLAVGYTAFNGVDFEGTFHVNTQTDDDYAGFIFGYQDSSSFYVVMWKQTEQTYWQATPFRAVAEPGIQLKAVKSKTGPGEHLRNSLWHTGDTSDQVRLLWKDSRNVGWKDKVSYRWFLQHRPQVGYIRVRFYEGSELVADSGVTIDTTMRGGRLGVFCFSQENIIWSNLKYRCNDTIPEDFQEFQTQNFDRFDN
Nucleolin (human), sequence (P19338 2-710 limits assumed): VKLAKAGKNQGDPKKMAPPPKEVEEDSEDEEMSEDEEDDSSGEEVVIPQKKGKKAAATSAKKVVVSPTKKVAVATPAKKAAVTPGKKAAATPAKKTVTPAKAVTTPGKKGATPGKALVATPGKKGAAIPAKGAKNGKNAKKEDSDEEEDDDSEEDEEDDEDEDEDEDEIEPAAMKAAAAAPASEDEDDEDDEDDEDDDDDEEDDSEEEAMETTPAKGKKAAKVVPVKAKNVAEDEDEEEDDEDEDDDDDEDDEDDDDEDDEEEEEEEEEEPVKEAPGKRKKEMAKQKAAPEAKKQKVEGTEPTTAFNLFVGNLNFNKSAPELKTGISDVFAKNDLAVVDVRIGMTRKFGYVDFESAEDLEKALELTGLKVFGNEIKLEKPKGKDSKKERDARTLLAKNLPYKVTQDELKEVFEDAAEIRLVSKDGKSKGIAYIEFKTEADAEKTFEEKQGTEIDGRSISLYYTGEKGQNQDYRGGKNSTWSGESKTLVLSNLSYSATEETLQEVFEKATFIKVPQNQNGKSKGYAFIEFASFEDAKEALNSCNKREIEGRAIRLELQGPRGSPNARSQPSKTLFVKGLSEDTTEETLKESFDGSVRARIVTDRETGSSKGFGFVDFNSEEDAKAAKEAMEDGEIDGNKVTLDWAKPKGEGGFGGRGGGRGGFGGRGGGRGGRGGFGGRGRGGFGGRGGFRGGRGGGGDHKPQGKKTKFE
Glucosidase 2 subunit beta (human), sequence (P14314 other isoform, or with tags, fused parts or gaps limits assumed): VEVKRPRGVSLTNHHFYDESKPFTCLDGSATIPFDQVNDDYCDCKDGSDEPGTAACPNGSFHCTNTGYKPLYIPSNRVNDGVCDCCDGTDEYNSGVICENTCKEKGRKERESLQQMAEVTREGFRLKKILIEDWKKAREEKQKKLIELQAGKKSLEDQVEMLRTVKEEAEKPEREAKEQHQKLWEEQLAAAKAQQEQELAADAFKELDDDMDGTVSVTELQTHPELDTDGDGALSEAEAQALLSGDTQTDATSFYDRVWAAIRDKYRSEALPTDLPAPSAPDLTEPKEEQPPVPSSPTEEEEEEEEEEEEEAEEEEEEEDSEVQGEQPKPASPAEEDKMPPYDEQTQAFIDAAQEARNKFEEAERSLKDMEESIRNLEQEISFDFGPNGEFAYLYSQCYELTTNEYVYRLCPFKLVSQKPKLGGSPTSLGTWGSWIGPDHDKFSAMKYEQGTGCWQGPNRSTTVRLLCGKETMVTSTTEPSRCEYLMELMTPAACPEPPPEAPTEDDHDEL
Tropomyosin alpha-4 chain (human), sequence (P67936 2-248 limits assumed): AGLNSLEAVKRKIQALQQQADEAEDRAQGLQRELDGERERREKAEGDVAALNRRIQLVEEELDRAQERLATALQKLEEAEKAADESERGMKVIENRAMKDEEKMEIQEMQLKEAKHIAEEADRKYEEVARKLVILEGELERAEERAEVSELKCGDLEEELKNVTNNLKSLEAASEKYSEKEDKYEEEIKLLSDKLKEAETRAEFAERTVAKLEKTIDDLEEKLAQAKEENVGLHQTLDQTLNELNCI
Calreticulin (human), sequence (P27797 18-417 limits assumed): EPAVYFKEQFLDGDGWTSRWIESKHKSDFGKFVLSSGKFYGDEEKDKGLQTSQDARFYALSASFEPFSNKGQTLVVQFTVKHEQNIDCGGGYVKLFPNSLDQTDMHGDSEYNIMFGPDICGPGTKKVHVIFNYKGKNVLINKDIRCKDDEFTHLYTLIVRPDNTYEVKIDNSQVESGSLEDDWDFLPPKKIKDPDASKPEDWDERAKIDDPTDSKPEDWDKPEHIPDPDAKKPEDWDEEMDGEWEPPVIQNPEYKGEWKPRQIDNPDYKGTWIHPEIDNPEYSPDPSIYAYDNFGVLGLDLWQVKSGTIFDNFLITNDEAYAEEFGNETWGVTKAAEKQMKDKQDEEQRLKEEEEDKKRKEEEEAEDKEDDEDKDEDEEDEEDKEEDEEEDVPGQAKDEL
Acidic leucine-rich nuclear phosphoprotein 32 family member A (human), sequence (P39687 whole entry): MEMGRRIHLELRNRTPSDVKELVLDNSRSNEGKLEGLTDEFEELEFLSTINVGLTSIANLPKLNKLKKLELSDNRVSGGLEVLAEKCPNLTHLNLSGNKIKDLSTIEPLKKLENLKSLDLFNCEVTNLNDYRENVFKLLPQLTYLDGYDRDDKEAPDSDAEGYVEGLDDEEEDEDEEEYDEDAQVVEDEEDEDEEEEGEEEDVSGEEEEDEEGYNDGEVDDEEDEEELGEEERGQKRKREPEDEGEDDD
Isoform 2 of Ras suppressor protein 1 (human), sequence (Q15404 54-277 limits assumed): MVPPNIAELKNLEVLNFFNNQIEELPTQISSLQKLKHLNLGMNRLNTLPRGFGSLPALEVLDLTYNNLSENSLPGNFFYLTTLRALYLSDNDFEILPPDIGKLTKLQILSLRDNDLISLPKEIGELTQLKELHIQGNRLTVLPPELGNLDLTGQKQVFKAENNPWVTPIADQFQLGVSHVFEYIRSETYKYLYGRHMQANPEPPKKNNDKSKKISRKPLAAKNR
Serum deprivation-response protein (human), sequence (O95810 2-425 limits assumed): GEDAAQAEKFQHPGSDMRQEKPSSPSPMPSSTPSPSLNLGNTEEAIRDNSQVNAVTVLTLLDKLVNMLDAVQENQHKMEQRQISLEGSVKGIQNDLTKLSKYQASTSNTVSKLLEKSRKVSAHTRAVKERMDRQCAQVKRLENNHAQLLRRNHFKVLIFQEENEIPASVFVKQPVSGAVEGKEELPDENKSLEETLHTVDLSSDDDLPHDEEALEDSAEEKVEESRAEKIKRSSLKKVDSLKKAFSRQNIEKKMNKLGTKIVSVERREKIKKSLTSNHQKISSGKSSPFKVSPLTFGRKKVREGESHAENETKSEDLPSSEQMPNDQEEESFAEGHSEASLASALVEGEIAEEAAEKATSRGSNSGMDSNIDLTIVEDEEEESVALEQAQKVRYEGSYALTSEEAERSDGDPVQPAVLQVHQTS
14-3-3 protein zeta/delta (human), sequence (P63104 whole entry, stated change not applied): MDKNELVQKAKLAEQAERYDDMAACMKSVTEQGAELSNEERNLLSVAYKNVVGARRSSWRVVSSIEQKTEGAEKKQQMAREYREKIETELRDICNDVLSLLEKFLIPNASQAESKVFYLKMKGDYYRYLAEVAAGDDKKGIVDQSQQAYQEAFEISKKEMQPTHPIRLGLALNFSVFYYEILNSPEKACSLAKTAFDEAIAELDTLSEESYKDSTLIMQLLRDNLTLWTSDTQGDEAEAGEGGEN
Thymosin alpha-1 (human), sequence (P06454 other isoform, or with tags, fused parts or gaps limits assumed): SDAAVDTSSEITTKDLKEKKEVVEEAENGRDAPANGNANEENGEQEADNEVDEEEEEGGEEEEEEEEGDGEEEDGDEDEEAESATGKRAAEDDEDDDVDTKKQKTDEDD

PIF15 affinity resin (Cys-C6 spacer-PIF15 conjugated to agarose) (peptide)
5: Ave (Thymosin alpha-1 (human)) | Inject 2 (Thymosin alpha-1 (human))
7: Inject 3 (Thymosin alpha-1 (human)) | Inject 1 (Calreticulin (human))
11: Inject 3 [4]
3: Ave [1] | Inject 1 [1] | Inject 2 [1] | Inject 3 [1] | Ave (Calmodulin (human)) | Inject 1 (Calmodulin (human)) | Inject 2 (Calmodulin (human)) | Inject 3 (Calmodulin (human)) | Ave [6] | Inject 1 [6] | Inject 2 [6] | Inject 3 [6] | Inject 1 [9] | Inject 3 [10] | Ave [12] | Inject 1 [12] | Inject 2 [12] | Inject 3 [12] | Ave (Thrombospondin-4 (human)) | Inject 1 (Thrombospondin-4 (human)) | Inject 2 (Thrombospondin-4 (human)) | Inject 3 (Thrombospondin-4 (human)) | Ave [14] | Inject 1 [14] | Inject 2 [14] | Inject 3 [14]
0: Inject 1 [15]
2: Ave [3] | Inject 1 [3] | Inject 2 [3] | Inject 3 [3] | Ave [7] | Inject 1 [7] | Inject 2 [7] | Inject 3 [7] | Ave (Nucleolin (human)) | Inject 1 (Nucleolin (human)) | Inject 2 (Nucleolin (human)) | Inject 3 (Nucleolin (human)) | Ave [10] | Inject 2 [10] | Ave [11] | Inject 1 [11] | Inject 2 [11] | Inject 3 [11] | Inject 3 [15] | Inject 2 (Matrin-3 (human)) | Ave [16] | Inject 3 [16]
10: Ave [4] | Inject 1 [4] | Inject 2 [4]
6: Ave (Thrombospondin-1 (human)) | Inject 1 (Thrombospondin-1 (human)) | Inject 2 (Thrombospondin-1 (human)) | Inject 3 (Thrombospondin-1 (human)) | Ave (Calreticulin (human)) | Inject 3 (Calreticulin (human))
4: Ave [8] | Inject 1 [8] | Inject 2 [8] | Inject 3 [8] | Ave [9] | Inject 2 [9] | Inject 3 [9] | Inject 1 (Thymosin alpha-1 (human)) | Ave [13] | Inject 1 [13] | Inject 2 [13] | Inject 3 [13] | Inject 2 (Calreticulin (human)) | Inject 1 [16]
1: Ave [2] | Inject 1 [2] | Inject 2 [2] | Inject 3 [2] | Ave (Cofilin-1 (human)) | Inject 1 (Cofilin-1 (human)) | Inject 2 (Cofilin-1 (human)) | Inject 3 (Cofilin-1 (human)) | Ave [5] | Inject 1 [5] | Inject 2 [5] | Inject 3 [5] | Inject 1 [10] | Ave [15] | Inject 2 [15] | Ave (Matrin-3 (human)) | Inject 1 (Matrin-3 (human)) | Inject 3 (Matrin-3 (human)) | Inject 2 [16]

Source: US20180318386A1, “PEPTIDES AND METHODS OF TREATING ENDOMETRIOSIS USING THE SAME” (BIOINCEPT, LLC, priority 2014, published 2018)
